From the supplement of paper PMC12042874
± gives the uncertainty stated by the source.

Assay: amyloid nucleation score (Sup35N fusion, yeast selection) (log enrichment); library NNK1; higher = more nucleation; inactive = no reads after selection
How it was run: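 The nucleation score equals the log enrichment of output over input reads from DiMSum, centred on the mode score of non-aggregating sequences. It was computed only for sequences with 100 or more input reads. The reads came from Illumina sequencing of plasmid inserts from psi-negative yeast expressing Sup35N fused to peptides of 20 random codons, induced with 100 μM copper sulfate for 24 hours and grown 7 days at 30°C without adenine and uracil.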

In order of falling amyloid nucleation score:
1. MPLSILQLKTRFFKPSNDSR  5.42 ± 0.11
2. MCSLFVCMSNTSIV  5.406 ± 0.051
3. MISDFSNVIMLVCIPCFLYV  5.13 ± 0.067
4. MRPVSLYGFIFCCAFQGLWF  4.99 ± 0.07
5. MPLYLVCDFLNYGFVISVSS  4.42 ± 0.095
6. MHYWGTGKHQINTWNMILFI  3.95 ± 0.11
7. MIPDINIFQIIMVTHKLFRY  3.71 ± 0.14
8. MFGIFM  3.58 ± 0.099
9. MCLSPVNNVLLYFRFNKRAE  3.38 ± 0.12
10. MCFDGICMNWWVR  2.96 ± 0.086
11. MQLTFAVKLGENRE  2.77 ± 0.079
12. MPDYVVGYHGGWSCNLILRF  2.54 ± 0.19
13. MLRSNVLYLIHRALCLWCVT  2.42 ± 0.17
14. MRENIWPITCSNL  2.28 ± 0.57
15. MRIIQCRRLFKVCCCFSVCL  2.28 ± 0.14
16. MRYLNFLCHCVVVYVVMSAS  2.16 ± 0.57
17. MFFLYCLARRVGKLMECRV  1.28 ± 0.46
18. MFVDFTDVRMVYLSLCVYML  1.25 ± 0.093
19. MSLFNISSHSWLKFTLCVPG  1.17 ± 0.66
20. MDNGTESPLE  1.15 ± 0.72
21. MRSMGLCTTGCQIDSRRVRW  0.947 ± 0.61
22. MLIRWNSYTGHIGWIFSGKA  0.94 ± 0.19
23. MIMLIWVINSLTYGLEGLTA  0.919 ± 0.39
24. MDSDRVRPDESSVGLN  0.915 ± 0.56
25. MKGARFARS  0.91 ± 0.8
26. MGHTGYFQCKVATWCEGE  0.792 ± 0.92
27. MESLIRFSPASKIVISPFTV  0.748 ± 1.2
28. MRLSQRWPNSKVCDLRHSRP  0.632 ± 0.45
29. MGSEVSELWGLVEVKVGDKP  0.617 ± 0.52
30. MRNYNLAWRHSSYCTIRSNA  0.51 ± 0.84
31. MSNFLTELGNNSTHREDGER  0.501 ± 0.78
32. MFFVSI  0.41 ± 0.22
33. MLHHLSYVAVRWCKRTRKLC  0.405 ± 0.71
34. MPGNQYCSVSYLYQRSSGTV  0.384 ± 0.45
35. MRCPRLASSDNDPCLLSRVS  0.357 ± 0.39
36. MLWSL  0.342 ± 0.59
37. MHISCNTDSSYTFGRNALK  0.341 ± 0.74
38. MFSQLGVYISCFLSSSVDVE  0.317 ± 0.48
39. MHLVQSCYLVIPRVLDPELV  0.313 ± 1
40. MRDLALLAEVLVTD  0.295 ± 0.4
41. MNIVSTRS  0.231 ± 0.22
42. MLGSGAANTCHLTTRAWDHR  0.183 ± 0.39
43. MPCFGVQKIYQLDETMPSET  0.141 ± 0.45
44. MKYPENSQWKDLYGFTVQVH  0.102 ± 0.46
45. MMRTEIARVLCLSLF  0.077 ± 0.37
46. MFKNRGG  0.057 ± 0.36
47. MHRGDVMRSSWNHDGVGTVR  0.048 ± 1.2
48. MKYKSWTSGSGSSVSRRMKL  0.028 ± 0.72
49. MICYLF  0.019 ± 0.26
50. MRFMPVVWCRRMQESLGHST  -0.026 ± 0.37
51. MRLSNYFTGRDWGF  -0.046 ± 0.43
52. MSAVTGYECFRSLLV  -0.055 ± 0.35
53. MLEQAFESFPTWRTT  -0.06 ± 0.5
54. MRGERVYSLRNNSHQ  -0.078 ± 0.33
55. MRNKKRPSRLVIGRLGNGFS  -0.079 ± 0.84
56. MFLIGFDGTYERSSLF  -0.106 ± 1.7
57. MQINGRESDCMWNNMNARDW  -0.108 ± 0.27
58. MKVYHSTQEVLWGQGGLLTR  -0.116 ± 0.42
59. MEAWRHSTSACSDGA  -0.245 ± 0.39
60. MCMQKVL  -0.263 ± 1.4
61. MRRPVKCYGVVTL  -0.299 ± 1.1
62. MNLQYHILN  -0.345 ± 1.7
63. MDRFRHNLILICLFLPLILV  -0.364 ± 0.75
64. MHCLGLAWALELVSLLC  -0.374 ± 0.77
65. MSKIGLLRLDDYHRMGFCKQ  -0.469 ± 0.38
66. MSMKQEEVDGSSW  -0.553 ± 1.5
67. MSDSG  -0.576 ± 0.81
68. MNFSYLWVYGNGL  -0.629 ± 0.63
69. MEWLYRNTATFCR  -0.657 ± 1.7
70. MSASLWRGNKVDHWHSECYK  -0.661 ± 0.64
71. MFRALVCITVPILHKATNM  -0.689 ± 0.81
72. MKIGIGVFRDREGNSGWL  -0.741 ± 1.4
73. MGLMIMIFWWEDM  -0.82 ± 0.91
74. MMLGSGFLCLLMYDGVRFLL  -0.839 ± 0.62
75. MRLSHAVTYRN  -0.987 ± 1.7
76. MHVQRVFTRCFKFSPQFVRH  -1.11 ± 0.36
77. MKVRISEILEILKVSFKNFP  -1.21 ± 1.4
78. MKDYHSDHIKIVQANHTEKV  -1.32 ± 2.4
79. MRSWIVIMALKM  -1.34 ± 0.85
80. MLSII  -1.39 ± 1.7
81. MRRRIQLDLRRFDPSCMKDV  -1.66 ± 1.1
82. MQLHNGWMLITYKKGTSIIW  -2.3 ± 1.8

In the case of MDLNEQTEYLLLASRFPMYY, the amyloid nucleation score is reported as “inactive”.
In the case of MIGTYRWMLIMGLETVRKGG, the amyloid nucleation score is reported as “inactive”.
For MIHVFLGETYLVIFAVNFST, the amyloid nucleation score was “inactive”.
With MLFLARRILSEYRFMPTWVG the amyloid nucleation score was “inactive”.
